Measurements taken from IntAct's records for PubMed 15933069.

What was measured:
kmt5a_human KMT5A [1] = target: T1, kmt5a_human KMT5A (UniProt Q9NQR1)
T1 sequence: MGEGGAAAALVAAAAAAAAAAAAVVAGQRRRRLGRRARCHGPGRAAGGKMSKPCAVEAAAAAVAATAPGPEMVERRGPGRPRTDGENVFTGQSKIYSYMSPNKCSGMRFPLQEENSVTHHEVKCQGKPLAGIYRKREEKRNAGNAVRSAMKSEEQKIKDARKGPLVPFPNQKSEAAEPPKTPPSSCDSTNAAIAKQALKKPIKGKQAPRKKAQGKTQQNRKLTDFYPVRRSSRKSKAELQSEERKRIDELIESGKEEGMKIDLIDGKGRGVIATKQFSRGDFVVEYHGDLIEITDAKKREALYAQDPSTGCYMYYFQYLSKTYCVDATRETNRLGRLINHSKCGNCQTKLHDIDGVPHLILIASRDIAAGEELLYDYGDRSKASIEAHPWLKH

kmt5a_human KMT5A [2] = target: T1, kmt5a_human KMT5A; remark: listed apart in the source

effect of a mutation on the interaction (kmt5a_human KMT5A [1]) | effect of a mutation on the interaction (kmt5a_human KMT5A [2]) | Substance
decreasing interaction |  | Histone H4 (Homo sapiens) (from UniProt P62805) H19A
 | decreasing interaction | Histone H4 (Homo sapiens) (from UniProt P62805) H19Q
 | decreasing interaction | Histone H4 (Homo sapiens) (from UniProt P62805) H19Y
